In publication doi:10.1101/2025.03.16.643581:

Target: CDKL5-PBM peptide, WT (FITC-labeled) (human)
Assay: fluorescence polarisation

Row | Kd [µM] | Substance
1 | 146 | PSD95 PDZ1 domain (domain or fragment)
2 | 40.8 | PSD95 PDZ2 domain (domain or fragment)
3 | 13.3 | PSD95 PDZ3 domain (domain or fragment)
